The chains are these.
B1: TRIM28 (protein, UniProt Q13263 2-835, looked up)
Transcription intermediary …: AASAAAASAAAASAASGSPGPGEGSAGGEKRSTAPSAAASASASAAASSPAGGGAEALELLEHCGVCRERLRPEREPRLLPCLHSACSACLGPAAPAAANSSGDGGAAGDGTVVDCPVCKQQCFSKDIVENYFMRDSGSKAATDAQDANQCCTSCEDNAPATSYCVECSEPLCETCVEAHQRVKYTKDHTVRSTGPAKSRDGERTVYCNVHKHEPLVLFCESCDTLTCRDCQLNAHKDHQYQFLEDAVRNQRKLLASLVKRLGDKHATLQKSTKEVRSSIRQVSDVQKRVQVDVKMAILQIMKELNKRGRVLVNDAQKVTEGQQERLERQHWTMTKIQKHQEHILRFASWALESDNNTALLLSKKLIYFQLHRALKMIVDPVEPHGEMKFQWDLNAWTKSAEAFGKIVAERPGTNSTGPAPMAPPRAPGPLSKQGSGSSQPMEVQEGYGFGSGDDPYSSAEPHVSGVKRSRSGEGEVSGLMRKVPRVSLERLDLDLTADSQPPVFKVFPGSTTEDYNLIVIERGAAAAATGQPGTAPAGTPGAPPLAGMAIVKEEETEAAIGAPPTATEGPETKPVLMALAEGPGAEGPRLASPSGSTSSGLEVVAPEGTSAPGGGPGTLDDSATICRVCQKPGDLVMCNQCEFCFHLDCHLPALQDVPGEEWSCSLCHVLPDLKEEDGSLSLDGADSTGVVAKLSPANQRKCERVLLALFCHEPCRPLHQLATDSTFSLDQPGGTLDLTLIRARLQEKLSPPYSSPQEFAQDVGRMFKQFNKLTEDKADVQSIIGLQRFFETRMNEAFGDTKFSAVLVEPPPMSLPGAGLSSQELSGGPGDGP
B2: NHP2 (protein, UniProt Q9NX24 1-153, looked up)
H/ACA ribonucleoprotein …: MTKIKADPDGPEAQAEACSGERTYQELLVNQNPIAQPLASRRLTRKLYKCIKKAVKQKQIRRGVKEVQKFVNKGEKGIMVLAGDTLPIEVYCHLPVMCEDRNLPYVYIPSKTDLGAAAGSKRPTCVIMVKPHEEYQEAYDECLEEVQSLPLPL
B3: HNRNPA261 (protein, UniProt P22626 1-353, looked up)
Heterogeneous nuclear …: MEKTLETVPLERKKREKEQFRKLFIGGLSFETTEESLRNYYEQWGKLTDCVVMRDPASKRSRGFGFVTFSSMAEVDAAMAARPHSIDGRVVEPKRAVAREESGKPGAHVTVKKLFVGGIKEDTEEHHLRDYFEEYGKIDTIEIITDRQSGKKRGFGFVTFDDHDPVDKIVLQKYHTINGHNAEVRKALSRQEMQEVQSSRSGRGGNFGFGDSRGGGGNFGPGPGSNFRGGSDGYGSGRGFGDGYNGYGGGPGGGNFGGSPGYGGGRGGYGGGGPGYGNQGGGYGGGYDNYGGGNYGSGNYNDFGNYNQQPSNYGPMKSGNFGGSRNMGGPYGGGNYGPGGSGGSGGYGGRSRY
B4: DHX8 (protein, UniProt Q14562 1-1220, looked up)
ATP-dependent RNA helicase …: MAVAVAMAGALIGSEPGPAEELAKLEYLSLVSKVCTELDNHLGINDKDLAEFVISLAEKNTTFDTFKASLVKNGAEFTDSLISNLLRLIQTMRPPAKPSTSKDPVVKPKTEKEKLKELFPVLCQPDNPSVRTMLDEDDVKVAVDVLKELEALMPSAAGQEKQRDAEHRDRTKKKKRSRSRDRNRDRDRDRERNRDRDHKRRHRSRSRSRSRTRERNKVKSRYRSRSRSQSPPKDRKDRDKYGERNLDRWRDKHVDRPPPEEPTIGDIYNGKVTSIMQFGCFVQLEGLRKRWEGLVHISELRREGRVANVADVVSKGQRVKVKVLSFTGTKTSLSMKDVDQETGEDLNPNRRRNLVGETNEETSMRNPDRPTHLSLVSAPEVEDDSLERKRLTRISDPEKWEIKQMIAANVLSKEEFPDFDEETGILPKVDDEEDEDLEIELVEEEPPFLRGHTKQSMDMSPIKIVKNPDGSLSQAAMMQSALAKERRELKQAQREAEMDSIPMGLNKHWVDPLPDAEGRQIAANMRGIGMMPNDIPEWKKHAFGGNKASYGKKTQMSILEQRESLPIYKLKEQLVQAVHDNQILIVIGETGSGKTTQITQYLAEAGYTSRGKIGCTQPRRVAAMSVAKRVSEEFGCCLGQEVGYTIRFEDCTSPETVIKYMTDGMLLRECLIDPDLTQYAIIMLDEAHERTIHTDVLFGLLKKTVQKRQDMKLIVTSATLDAVKFSQYFYEAPIFTIPGRTYPVEILYTKEPETDYLDASLITVMQIHLTEPPGDILVFLTGQEEIDTACEILYERMKSLGPDVPELIILPVYSALPSEMQTRIFDPAPPGSRKVVIATNIAETSLTIDGIYYVVDPGFVKQKVYNSKTGIDQLVVTPISQAQAKQRAGRAGRTGPGKCYRLYTERAYRDEMLTTNVPEIQRTNLASTVLSLKAMGINDLLSFDFMDAPPMETLITAMEQLYTLGALDDEGLLTRLGRRMAEFPLEPMLCKMLIMSVHLGCSEEMLTIVSMLSVQNVFYRPKDKQALADQKKAKFHQTEGDHLTLLAVYNSWKNNKFSNPWCYENFIQARSLRRAQDIRKQMLGIMDRHKLDVVSCGKSTVRVQKAICSGFFRNAAKKDPQEGYRTLIDQQVVYIHPSSALFNRQPEWVVYHELVLTTKEYMREVTTIDPRWLVEFAPAFFKVSDPTKLSKQKKQQRLEPLYNRYEEPNAWRISRAFRRR
B5: SF3B1 (protein, UniProt O75533 1-1304, looked up)
Splicing factor 3B subunit 1: MAKIAKTHEDIEAQIREIQGKKAALDEAQGVGLDSTGYYDQEIYGGSDSRFAGYVTSIAATELEDDDDDYSSSTSLLGQKKPGYHAPVALLNDIPQSTEQYDPFAEHRPPKIADREDEYKKHRRTMIISPERLDPFADGGKTPDPKMNARTYMDVMREQHLTKEEREIRQQLAEKAKAGELKVVNGAAASQPPSKRKRRWDQTADQTPGATPKKLSSWDQAETPGHTPSLRWDETPGRAKGSETPGATPGSKIWDPTPSHTPAGAATPGRGDTPGHATPGHGGATSSARKNRWDETPKTERDTPGHGSGWAETPRTDRGGDSIGETPTPGASKRKSRWDETPASQMGGSTPVLTPGKTPIGTPAMNMATPTPGHIMSMTPEQLQAWRWEREIDERNRPLSDEELDAMFPEGYKVLPPPAGYVPIRTPARKLTATPTPLGGMTGFHMQTEDRTMKSVNDQPSGNLPFLKPDDIQYFDKLLVDVDESTLSPEEQKERKIMKLLLKIKNGTPPMRKAALRQITDKAREFGAGPLFNQILPLLMSPTLEDQERHLLVKVIDRILYKLDDLVRPYVHKILVVIEPLLIDEDYYARVEGREIISNLAKAAGLATMISTMRPDIDNMDEYVRNTTARAFAVVASALGIPSLLPFLKAVCKSKKSWQARHTGIKIVQQIAILMGCAILPHLRSLVEIIEHGLVDEQQKVRTISALAIAALAEAATPYGIESFDSVLKPLWKGIRQHRGKGLAAFLKAIGYLIPLMDAEYANYYTREVMLILIREFQSPDEEMKKIVLKVVKQCCGTDGVEANYIKTEILPPFFKHFWQHRMALDRRNYRQLVDTTVELANKVGAAEIISRIVDDLKDEAEQYRKMVMETIEKIMGNLGAADIDHKLEEQLIDGILYAFQEQTTEDSVMLNGFGTVVNALGKRVKPYLPQICGTVLWRLNNKSAKVRQQAADLISRTAVVMKTCQEEKLMGHLGVVLYEYLGEEYPEVLGSILGALKAIVNVIGMHKMTPPIKDLLPRLTPILKNRHEKVQENCIDLVGRIADRGAEYVSAREWMRICFELLELLKAHKKAIRRATVNTFGYIAKAIGPHDVLATLLNNLKVQERQNRVCTTVAIAIVAETCSPFTVLPALMNEYRVPELNVQNGVLKSLSFLFEYIGEMGKDYIYAVTPLLEDALMDRDLVHRQTASAVVQHMSLGVYGFGCEDSLNHLLNYVWPNVFETSPHVIQAVMGALEGLRVAIGPCRMLQYCLQGLFHPARKVRDVYWKIYNSIYIGSQDALIAHYPRIYNDDKNTYIRYELDYIL
B6: PATL1 (protein, UniProt Q86TB9 1-770, looked up)
Protein PAT1 homolog 1: MFRYESLEDCPLDEDEDAFQGLGEEDEEIDQFNDDTFGSGAVDDDWQEAHERLAELEEKLPVAVNEQTGNGERDEMDLLGDHEENLAERLSKMVIENELEDPAIMRAVQTRPVLQPQPGSLNSSIWDGSEVLRRIRGPLLAQEMPTVSVLEYALPQRPPQGPEDDRDLSERALPRRSTSPIIGSPPVRAVPIGTPPKQMAVPSFTQQILCPKPVHVRPPMPPRYPAPYGERMSPNQLCSVPNSSLLGHPFPPSVPPVLSPLQRAQLLGGAQLQPGRMSPSQFARVPGFVGSPLAAMNPKLLQGRVGQMLPPAPGFRAFFSAPPSATPPPQQHPPGPGPHLQNLRSQAPMFRPDTTHLHPQHRRLLHQRQQQNRSQHRNLNGAGDRGSHRSSHQDHLRKDPYANLMLQREKDWVSKIQMMQLQSTDPYLDDFYYQNYFEKLEKLSAAEEIQGDGPKKERTKLITPQVAKLEHAYKPVQFEGSLGKLTVSSVNNPRKMIDAVVTSRSEDDETKEKQVRDKRRKTLVIIEKTYSLLLDVEDYERRYLLSLEEERPALMDDRKHKICSMYDNLRGKLPGQERPSDDHFVQIMCIRKGKRMVARILPFLSTEQAADILMTTARNLPFLIKKDAQDEVLPCLLSPFSLLLYHLPSVSITSLLRQLMNLPQSAATPALSNPHLTAVLQNKFGLSLLLILLSRGEDLQSSDPATESTQNNQWTEVMFMATRELLRIPQAALAKPISIPTNLVSLFSRYVDRQKLNLLETKLQLVQGIR
B7: SNX13 (protein, UniProt Q9Y5W8 1-968, looked up)
Sorting nexin-13: MLTEASLSIWGWGSLGIVLFLITFGPFVIFYLTFYILCFVGGGLVVTLLFGKTNSEKYLEQCEHSFLPPTSPGVPKCLEEMKREARTIKIDRRLTGANIIDEPLQQVIQFSLRDYVQYWYYTLSDDESFLLEIRQTLQNALIQFATRSKEIDWQPYFTTRIVDDFGTHLRVFRKAQQKITEKDDQVKGTAEDLVDTFFEVEVEMEKEVCRDLVCTSPKDEEGFLRDLCEVLLYLLLPPGDFQNKIMRYFVREILARGILLPLINQLSDPDYINQYVIWMIRDSNCNYEAFMNIIKLSDNIGELEAVRDKAAEELQYLRSLDTAGDDINTIKNQINSLLFVKKVCDSRIQRLQSGKEINTVKLAANFGKLCTVPLDSILVDNVALQFFMDYMQQTGGQAHLFFWMTVEGYRVTAQQQLEVLLSRQRDGKHQTNQTKGLLRAAAVGIYEQYLSEKASPRVTVDDYLVAKLADTLNHEDPTPEIFDDIQRKVYELMLRDERFYPSFRQNALYVRMLAELDMLKDPSFRGSDDGDGESFNGSPTGSINLSLDDLSNVSSDDSVQLHAYISDTVYADYDPYAVAGVCNDHGKTYALYAITVHRRNLNSEEMWKTYRRYSDFHDFHMRITEQFESLSSILKLPGKKTFNNMDRDFLEKRKKDLNAYLQLLLAPEMMKASPALAHYVYDFLENKAYSKGKGDFARKMDTFVNPLRNSMRNVSNAVKSLPDSLAEGMTKMSDNMGKMSERLGQDIKQSFFKVPPLIPKTDSDPEHRRVSAQLDDNVDDNIPLRVMLLLMDEVFDLKERNQWLRRNIKNLLQQLIRATYGDTINRKIVDHVDWMTSPEQVADSVKRFRDAFWPNGILAEAVPCRDKSIRMRTRVAGKTKLLAIMPDELKHIIGAETTRKGILRVFEMFQHNQLNRRMVYVFLEGFLETLFPQYKFRELFNKLHSRSKQMQKYKQKLQTTQAPSLQKR

One assay has as its system HCoV-OC43 gRNA and sgRNA. The class given is binding. The following applies: 36 hpi; type n_36_v; tested against no-probe control; FDR<10%.
As to B1, the “target (unweighted spectral count, OC43 Probe II capture)” value came to 13.
For the molecule B2, the “target (unweighted spectral count, OC43 Probe II capture)” value is listed as 6.
On to B3, for which the “target (unweighted spectral count, OC43 Probe II capture)” value amounted to 70.
B4: the “target (unweighted spectral count, OC43 Probe II capture)” value was determined as 27.
As to B5, the “target (unweighted spectral count, OC43 Probe II capture)” value is 6.
For the molecule B6, the “target (unweighted spectral count, OC43 Probe II capture)” value worked out at 6.
On to B7, for which the “target (unweighted spectral count, OC43 Probe II capture)” value is reported as 5.

The same assay, now with this note: type n_48_v; 48 hpi; OC43 Probe II capture on infected cells.
As for B1, the “target (unweighted spectral count, OC43 Probe II)” value stood at 6.
Still for that read-out and setting: with B2 the figure was 6.

Staying with this assay, now noted: type n_48_v; 48 hpi; no-probe control on infected cells.
Take B1: the “background (unweighted spectral count, no-probe control)” value amounted to 1.
Same read-out and setting: the result for B2 reads 1.

(Values after US20230407373A1 (priority 2020, published 2023).)
